Data from patent US7588931B2, “High arachidonic acid producing strains of Yarrowia lipolytica” (E. I. du Pont de Nemours and Company, priority 2004, dated 2009).
“Also recorded” adds a separate entry of the source.

B1: FBAIN: fructose-bisphosphate aldolase + intron promoter, SEQ ID NO:162 (nucleic acid, listed as Yarrowia lipolytica)
DNA: AAATTGCCCCGGAGAAGACGGCCAGGCCGCCTAGATGACAAATTCAACAACTCACAGCTGACTTTCTGCCATTGCCACTAGGGGGGGGCCTTTTTATATGGCCAAGCCAAGCTCTCCACGTCGGTTGGGCTGCACCCAACAATAAATGGGTAGGGTTGCACCAACAAAGGGATGGGATGGGGGGTAGAAGATACGAGGATAACGGGGCTCAATGGCACAAATAAGAACGAATACTGCCATTAAGACTCGTGATCCAGCGACTGACACCATTGCATCATCTAAGGGCCTCAAAACTACCTCGGAACTGCTGCGCTGATCTGGACACCACAGAGGTTCCGAGCACTTTAGGTTGCACCAAATGTCCCACCAGGTGCAGGCAGAAAACGCTGGAACAGCGTGTACAGTTTGTCTTAACAAAAAGTGAGGGCGCTGAGGTCGAGCAGGGTGGTGTGACTTGTTATAGCCTTTAGAGCTGCGAAAGCGCGTATGGATTTGGCTCATCAGGCCAGATTGAGGGTCTGTGGACACATGTCATGTTAGTGTACTTCAATCGCCCCCTGGATATAGCCCCGACAATAGGCCGTGGCCTCATTTTTTTGCCTTCCGCACATTTCCATTGCTCGGTACCCACACCTTGCTTCTCCTGCACTTGCCAACCTTAATACTGGTTTACATTGACCAACATCTTACAAGCGGGGGGCTTGTCTAGGGTATATATAAACAGTGGCTCTCCCAATCGGTTGCCAGTCTCTTTTTTCCTTTCTTTCCCCACAGATTCGAAATCTAAACTACACATCACACAATGCCTGTTACTGACGTCCTTAAGCGAAAGTCCGGTGTCATCGTCGGCGACGATGTCCGAGCCGTGAGTATCCACGACAAGATCAGTGTCGAGACGACGCGTTTTGTGTAATGACACAATCCGAAAGTCGCTAGCAACACACACTCTCTACACAAACTAACCCAGCTCTCC
modifications: misc_feature: Promoter FBAIN
B2: FBA: Y. lipolytica fructose-bisphosphate aldolase promoter, SEQ ID NO:161 (nucleic acid, listed as Yarrowia lipolytica)
DNA: TAAACAGTGTACGCAGTACTATAGAGGAACAATTGCCCCGGAGAAGACGGCCAGGCCGCCTAGATGACAAATTCAACAACTCACAGCTGACTTTCTGCCATTGCCACTAGGGGGGGCCTTTTTATATGGCCAAGCCAAGCTCTCCACGTCGGTTGGGCTGCACCCAACAATAAATGGGTAGGGTTGCACCAACAAAGGGATGGGATGGGGGGTAGAAGATACGAGGATAACGGGGCTCAATGGCACAAATAAGAACGAATACTGCCATTAAGACTCGTGATCCAGCGACTGACACCATTGCATCATCTAAGGGCCTCAAAACTACCTCGGAACTGCTGCGCTGATCTGGACACCACAGAGGTTCCGAGCACTTTAGGTTGCACCAAATGTCCCACCAGGTGCAGGCAGAAAACGCTGGAACAGCGTGTACAGTTTGTCTTAACAAAAAGTGAGGGCGCTGAGGTCGAGCAGGGTGGTGTGACTTGTTATAGCCTTTAGAGCTGCGAAAGCGCGTATGGATTTGGCTCATCAGGCCAGATTGAGGGTCTGTGGACACATGTCATGTTAGTGTACTTCAATCGCCCCCTGGATATAGCCCCGACAATAGGCCGTGGCCTCATTTTTTTGCCTTCCGCACATTTCCATTGCTCGGTACCCACACCTTGCTTCTCCTGCACTTGCCAACCTTAATACTGGTTTACATTGACCAACATCTTACAAGCGGGGGGCTTGTCTAGGGTATATATAAACAGTGGCTCTCCCAATCGGTTGCCAGTCTCTTTTTTCCTTTCTTTCCCCACAGATTCGAAATCTAAACTACACATCACACAATGCCTGTTACTGACGTCCTTAAGCGAAAGTCCGGTGTCATCGTCGGCGACGATGTCCGAGCCGTGAGTATCCACGACAAGATCAGTGTCGAGACGACGCGTTTTGTGTAATGACACAATCCGAAAGTCGCTAGCAACACACACTCTCTACACAAACTAACCCAGCTCTCC
modifications: misc_feature: Promoter FBA

Columns and labels:
[1] = test system: β-glucuronidase (GUS) reporter; assay: Comparative analysis of promoters by histochemical analysis of GUS expression; format: cell-based, Yarrowia lipolytica; conditions: ATCC #76982 strains, MM, FIG. 5B
Method: Comparative studies investigating the promoter activities of the TEF, GPD, GPDIN, GPM, GPAT, FBA, FBAIN and YAT1 promoters were performed, by synthesizing constructs comprising each promoter and the E. coli gene encoding β-glucuronidase (GUS) as a reporter gene (Jefferson, R. A. Nature. 14(342):837-838 (1989)). Then, GUS activity was measured by histochemical and fluorometric assays (Jefferson, R. A. Plant Mol. Biol. Reporter 5:387-405 (1987)) and/or by using Real Time PCR for mRNA quantitation.
Yarrowia lipolytica ATCC #76982 strains containing plasmids pY5-30, pYZGDG, pYZGMG, pDMW212 and pDMW214 were grown from single colonies in 3 mL MM at 30° C. to an OD600˜1.0. Then, 100 μl of cells were collected by centrifugation, resuspended in 100 μl of histochemical staining buffer, and incubated at 30° C. Staining buffer was prepared by dissolving 5 mg of 5-bromo-4-chloro-3-indolyl glucuronide (X-Gluc) in 50 μl dimethyl formamide, followed by the addition of 5 mL 50 mM NaPO4, pH 7.0.
In a separate experiment, Y. lipolytica Y2034 strains containing plasmids pY5-30, pYGPAT-GUS, pYAT-GUS and pDMW214 were grown from single colonies in 5 mL SD media at 30° C. for 24 hrs to an OD600˜8.0. Then, 1 mL of cells were collected by centrifugation. The remaining cultures were centrifuged and washed 2× with HGM, resuspended in 5 mL each of HGM and allowed to grow at 30° C. further. After 24 and 120 hrs, ˜0.25 mL of each culture were centrifuged to collect the cells. Cell samples were resuspended individually in 100 μl of histochemical staining buffer (supra). Zymolase 20T (5 μl of 1 mg/mL; ICN Biomedicals, Costa Mesa, Calif.) was added to each, and the mixture incubated at 30° C. […]

GUS mRNA = assay: Comparative analysis of promoters by quantitative (Real Time) PCR of GUS mRNA; format: cell-based, Yarrowia lipolytica; conditions: for transcription activity relative to the TEF promoter: after 24 hrs in HGM, ATCC #76982 strains
Method: The transcriptional activities of the TEF, GPD, GPDIN, FBA and FBAIN promoters were determined in Y. lipolytica containing the pY5-30, PYZGDG, pDMW222, pDMW212 and pDMW214 constructs by quantitative PCR analyses. This required isolation of RNA and real time RT-PCR.
More specifically, Y. lipolytica ATCC #76982 strains containing pY5-30, PYZGDG, pDMW222, pDMW212 and pDMW214 were grown from single colonies in 6 mL of MM in 25 mL Erlenmeyer flasks for 16 hrs at 30° C. Each of the 6 mL starter cultures was then added to individual 500 mL flasks containing 140 mL HGM and incubated at 30° C. for 4 days. In each interval of 24 hrs, 1 mL of each culture was removed from each flask to measure the optical density, 27 mL was removed and used for a fluorometric GUS assay (as described above), and two aliquots of 1.5 mL were removed for RNA isolation. The culture for RNA isolation was centrifuged to produce a cell pellet.
The RNA was isolated from Yarrowia strains according to the modified Qiagen RNeasy mini protocol (Qiagen, San Diego, Calif.). Briefly, at each time point for each sample, 340 μL of Qiagen's buffer RLT was used to resuspend each of the two cell pellets. The buffer RLT/cell suspension mixture from each of the two tubes was combined in a bead beating tube (Bio101, San Diego, Calif.). About 500 μL of […] glass beads was added to the tube and the cells were disrupted by bead beating 2 min at setting 5 (BioPulverizer, Bio101 Company, San Diego, Calif.). The disrupted cells were then pelleted by centrifugation at 14,000 rpm for 1 min and 350 μl of the supernatent was transferred to a new microcentrifuge tube. Ethanol (350 μL of 70%) was added to each homogenized lysate. After gentle mixing, the entire sample was added to a RNeasy mini column in a 2 mL collection tube. The sample was centrifuged for 15 sec at 10,000 rpm. Buffer RW1 (350 μL) was added to the RNeasy mini column and the column was centrifuged for 15 sec at 10,000 rpm to wash the cells. The eluate was discarded. Qiagen's DNasel stock solution (10 μL) was added to 70 μl of Buffer RDD and gently mixed. This entire DNase solution was added to the RNeasy mini column and incubated at room temperature for 15 min. After the incubation step, 350 μL of Buffer RW1 was added to the mini column and the column was centrifuged for 15 sec at 10,000 rpm. The column was washed twice with 700 μL […]. RNase-free water (50 μL) was added to the column. The column was centrifuged for 1 min at 10,000 rpm to elute the RNA.
A two-step RT-PCR protocol was used, wherein total Yarrowia RNA was first converted to cDNA and then cDNA was analyzed using Real Time PCR. The conversion to cDNA was performed using Applied Biosystems' High Capacity cDNA Archive Kit (PN#4322171; Foster City, Calif.) and Molecular Biology Grade water from MediaTech, Inc. (PN# 46-000-Con; Holly Hill, Fla.). Total RNA from Yarrowia (100 ng) was converted to cDNA by combining it with 10 μl of RT buffer, 4 μl of 25×dNTPs, 10 μl 10× Random Hexamer primers, 5 μl Multiscribe Reverse Transcriptase and 0.005 μl RNase Inhibitor, and brought to a total reaction volume of 100 μl with water. The reactions were incubated in a thermocycler for 10 min at 25° C. followed by 2 hrs at 37° C. The cDNA was stored at −20° C. prior to Real Time analysis.
Real Time analysis was performed using the SYBR Green PCR Master Mix from Applied Biosystems (PN# 4309155). The Reverse Transcription reaction (2 μl) was added to 10 μl of 2×SYBR PCR Mix, 0.2 μl of 100 μM Forward and Reverse primers for either URA (i.e., primers YL-URA-16F and YL-URA-78R [SEQ ID NOs:183 and 184]) or GUS (i.e., primers GUS-767F and GUS-891R [SEQ ID NO:185 and 186]) and 7.2 μl water. The reactions were thermocycled for 10 min at 95° C. followed by 40 cycles of 95° C. for 5 sec and 60° C. for 1 min in an ABI 7900 Sequence Detection System instrument. Real time fluorescence data was collected during the 60° C. extension during each cycle. […]

| Molecule | promoter activity by histochemical staining [1] | transcription activity relative to the TEF promoter (GUS mRNA) | transcriptional activity relative to the TEF promoter (GUS mRNA; final day of the 4 day experiment in HGM) |
| --- | --- | --- | --- |
| B1 | active; also recorded: strongest promoter activity | ~6 times | about 3 times |
| B2 | active; also recorded: much stronger than all the other promoters | about 3.3 times |  |
